Laboratory results as given in patent US20220362394A1 (SUTRO BIOPHARMA, published 2022).
Like-named read-outs stand apart in the source and are kept apart here. One block for each binder: values may come before it.

Columns and labels:
[1] = biological target: T1, human BCMA on cells (human, UniProt Q02223 1-184); assay: FACS, OPM-2 cells
T1 construct: also called hBCMA; BCMA on NCI-H929, ARP-1, OPM-2, U266B1, MM.1S, RPMI-8226 cells
T1 sequence: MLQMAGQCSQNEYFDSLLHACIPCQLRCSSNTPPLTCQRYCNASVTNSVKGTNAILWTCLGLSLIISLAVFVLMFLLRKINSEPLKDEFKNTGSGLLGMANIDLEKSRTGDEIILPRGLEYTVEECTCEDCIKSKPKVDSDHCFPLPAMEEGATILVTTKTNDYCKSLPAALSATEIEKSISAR
Method: (§1) Cells were analyzed using a BD FACS Canto system. Fluorescence-activated cell sorting (FACS) data were analyzed using Flowjo software to calculate mean fluorescence intensity (MFI) (n=3 replicates) and data (mean MFI+/−standard error of the mean [SEM] versus nM of the antibody) was generated using the GraphPad Prism software.

[2] = biological target: T1, human BCMA on cells; assay: cell-based or functional assay
[3] = biological target: T1, human BCMA on cells; assay: FACS, RPMI-8226 cells
Method: as §1

[4] = biological target: T1, human BCMA on cells; assay: FACS, U266B1 cells
Method: as §1

[5] = biological target: T2, human TACI on cells (human, UniProt O14836 1-293); assay: flow cytometry on 293T cells stably expressing human TACI, detected with PE-conjugated anti-human Fc antibody
T2 construct: whole, on cells; also called TNFRSF13B
T2 sequence (looked up): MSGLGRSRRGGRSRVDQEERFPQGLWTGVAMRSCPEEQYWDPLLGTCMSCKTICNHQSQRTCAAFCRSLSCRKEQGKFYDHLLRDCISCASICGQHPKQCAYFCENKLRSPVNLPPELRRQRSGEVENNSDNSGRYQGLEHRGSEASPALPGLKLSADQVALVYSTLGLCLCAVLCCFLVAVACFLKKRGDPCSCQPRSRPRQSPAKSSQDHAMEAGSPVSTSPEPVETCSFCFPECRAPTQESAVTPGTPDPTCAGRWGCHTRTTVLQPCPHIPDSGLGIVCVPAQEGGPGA
Method: (§2) Cells were plated in 96-well plates (100K per well) and incubated with Abs. […] ADC binding was detected with phycoerythrin-conjugated anti-human Fc Ab (Jackson ImmunoResearch, West Grove, Pa.) for 1 hour on ice. Cells were analyzed using a BD FACS Canto system. FACS data were analyzed using Flowjo software to generate cell binding histograms.

[6] = biological target: cynomolgus BCMA on cells (cynomolgus monkey, UniProt Q02223 1-184 (human entry)); assay: FACS, 293T-cBCMA cells
cynomolgus BCMA on cells, sequence (Q02223 other isoform, or with tags, fused parts or gaps): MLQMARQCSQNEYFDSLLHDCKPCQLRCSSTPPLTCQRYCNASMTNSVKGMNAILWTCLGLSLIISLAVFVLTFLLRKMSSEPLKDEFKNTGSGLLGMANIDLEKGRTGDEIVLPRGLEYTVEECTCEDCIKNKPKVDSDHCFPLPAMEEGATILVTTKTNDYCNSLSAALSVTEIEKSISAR
Method: (§3) Cells were collected, washed and resuspended in FACS buffer (DPBS buffer with 1% bovine serum albumin and 0.05% v/v sodium azide). […] Ab binding was detected with phycoerythrin-conjugated anti-human Fc Ab (Jackson ImmunoResearch, West Grove, Pa.) for 1 hour on ice. Cells were analyzed using a BD FACS Canto system.

[7] = biological target: T1, human BCMA on cells; assay: FACS, MM.1S cells
Method: as §1

[8] = biological target: T3, human BAFF-R on cells (human, UniProt Q96RJ3 1-184); assay: flow cytometry on 293T cells stably expressing human BAFF-R, detected with PE-conjugated anti-human Fc antibody
T3 construct: whole, on cells; also called TNFRSF13C
Method: as §2

[9] = biological target: T1, human BCMA on cells; assay: cell-based or functional assay; remark: listed apart in the source
[10] = biological target: T1, human BCMA on cells; assay: FACS, NCI-H929 cells
Method: as §1

[11] = biological target: T4, mouse BCMA on cells (mouse, UniProt O88472 1-185); assay: FACS, 293T-mBCMA cells; NB: No binding
T4 construct: HEK293T cells transfected with plasmid encoding mouse BCMA (Invivogen)
T4 sequence: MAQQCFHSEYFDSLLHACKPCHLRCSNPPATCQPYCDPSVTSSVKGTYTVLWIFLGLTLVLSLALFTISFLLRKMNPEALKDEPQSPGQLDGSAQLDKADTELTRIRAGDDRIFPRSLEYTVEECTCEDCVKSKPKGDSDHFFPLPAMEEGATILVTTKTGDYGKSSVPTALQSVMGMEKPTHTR
Method: Cells were plated in 96-well plates (100 k per well) and incubated with antibodies (titrated half-log serial dilutions from 200 nM) for 1 hour on ice. […] Cells were analyzed using a BD LSR-Fortessa X-20 flow cytometry system. FACS data were analyzed using Flowjo software to calculate geometric fluorescence intensity (gMFI) (n=3 replicates) and data (geo. Mean MFI+/−SEM versus log nM Ab) were generated using GraphPad Prism software.

[12] = biological target: T1, human BCMA on cells; assay: FACS, ARP-1 cells
Method: as §1

[13] = biological target: T1, human BCMA on cells; assay: cell-based or functional assay; remark: listed apart in the source
[14] = biological target: T1, human BCMA on cells; assay: FACS, 293T-hBCMA cells
Method: as §3

Kd [1]: 2.3 nM | Kd [3]: 1.8 nM | Kd [4]: 3.9 nM | binding result [5]: no binding (tested: 67 nM) | Kd [6]: 2.7 nM | Kd [7]: 1.6 nM | binding result [8]: no binding (tested: 67 nM) | Kd [10]: 2.4 nM | binding result [11]: no binding (tested: 200 nM) | Kd [12]: 1.2 nM
B1: Conjugate 4 (antibody, human IgG1, kappa, V domains shown)
VH: EVQLVESGGGLVQPGGSLRLSCAASGFNISAPGIHWVRQAPGKGLEWVGFINPAGGYTDYADSVKGRFTISADTSKNTAYLQMNSLRAEDTAVYYCARDYIRQYWTYVLDYWGQGTLVTVSS
VL: not shown
modifications: p-azidomethyl-phenylalanine in place of HC-Y180 and HC-F404 (EU numbering), each bonded to a non-cleavable maytansine linker-warhead (Conjugate M); DAR4
notes: also called Conjugate 4 ADC; SP8919 ADC
cell killing EC50, ARP-1, no competing reagent [2]: 0.7 nM | cell killing EC50, NCI-H929, no competing reagent [2]: 0.9 nM | cell killing EC50, OPM2, no competing reagent [2]: 3.3 nM | cell killing EC50, U266B1, no competing reagent [2]: 0.9 nM | cell killing EC50, NCI-H929, Experiment 1 [9]: 0.7 nM | cell killing EC50, NCI-H929, Experiment 2 [9]: 0.8 nM | cell killing EC50, OPM2, Experiment 1 [9]: 1.7 nM | cell killing EC50, OPM2, Experiment 2 [9]: 2 nM | cell killing EC50, U266B1, Experiment 1 [9]: 0.7 nM | cell killing EC50, U266B1, Experiment 2 [9]: 0.8 nM | cell killing EC50, NCI-H929, Experiment 1 [13]: 0.8 nM | cell killing EC50, NCI-H929, Experiment 2 [13]: 0.8 nM | cell killing EC50, OPM2, Experiment 1 [13]: 1.7 nM | cell killing EC50, OPM2, Experiment 2 [13]: 1.8 nM | cell killing EC50, U266B1, Experiment 1 [13]: 0.8 nM | cell killing EC50, U266B1, Experiment 2 [13]: 0.9 nM

Kd [1]: 1.3 nM | Kd [3]: 1.3 nM | Kd [6]: 2.8 nM | Kd [7]: 0.9 nM | Kd [14]: 2.1 nM | Kd [10]: 0.9 nM | binding result [11]: no binding (tested: 200 nM) | Kd [12]: 1 nM
B2: 2265-F02 Y180/F404 (unconjugated Ab) (antibody, human IgG1, kappa, V domains shown)
VH: EVQLVESGGGLVQPGGSLRLSCAASGFNISAPGIHWVRQAPGKGLEWVGFINPAGGYTDYADSVKGRFTISADTSKNTAYLQMNSLRAEDTAVYYCARDYIRQYWTYVLDYWGQGTLVTVSS
VL: not shown
modifications: p-azidomethyl-phenylalanine in place of HC-Y180 and HC-F404 (EU numbering), unconjugated
notes: also called unconjugated anti-BCMA antibody, 2265-F02; unconjugated antibody version of Conjugate 4
